The source of these data is the Human Domainome abundance scans (Beltran et al. 2025).

± gives the uncertainty stated by the source.

The data set in a line: abundance fitness (aPCA) (normalised: wild type 0, dead -1); higher = more abundant; growth selection in yeast, the domain comes from the species named. The following applies: Homo sapiens.
The substance “NEDD4-like E3 ubiquitin-protein ligase WWP2 M440I, O00308” had an abundance fitness of -0.021 ± 0.076.

“NEDD4-like E3 ubiquitin-protein ligase WWP2 M440K, O00308” had an abundance fitness of 0.4 ± 0.12. Then “NEDD4-like E3 ubiquitin-protein ligase WWP2 M440L, O00308”, with -0.065 ± 0.1; and “NEDD4-like E3 ubiquitin-protein ligase WWP2 M440N, O00308”, with 0.283 ± 0.12; and “NEDD4-like E3 ubiquitin-protein ligase WWP2 M440Q, O00308”, with 0.206 ± 0.11. The figure for “NEDD4-like E3 ubiquitin-protein ligase WWP2 M440R, O00308” is -0.103 ± 0.087; for “NEDD4-like E3 ubiquitin-protein ligase WWP2 M440S, O00308” it is -0.102 ± 0.086; for “NEDD4-like E3 ubiquitin-protein ligase WWP2 M440T, O00308” it is -0.117 ± 0.033.

“NEDD4-like E3 ubiquitin-protein ligase WWP2 M440V, O00308” had an abundance fitness of -0.114 ± 0.079. As for “NEDD4-like E3 ubiquitin-protein ligase WWP2 M440W, O00308”, the abundance fitness was -0.831 ± 0.3.

As for “NEDD4-like E3 ubiquitin-protein ligase WWP2 M452A, O00308”, the abundance fitness was -0.01 ± 0.048. The substance “NEDD4-like E3 ubiquitin-protein ligase WWP2 M452C, O00308” yielded an abundance fitness of 0.009 ± 0.055. The substance “NEDD4-like E3 ubiquitin-protein ligase WWP2 M452D, O00308” had an abundance fitness of -0.12 ± 0.056. Turning to “NEDD4-like E3 ubiquitin-protein ligase WWP2 M452E, O00308”, the abundance fitness is 0.046 ± 0.046. The substance “NEDD4-like E3 ubiquitin-protein ligase WWP2 M452F, O00308” returned an abundance fitness of -0.097 ± 0.05. For “NEDD4-like E3 ubiquitin-protein ligase WWP2 M452G, O00308”, the abundance fitness was -0.197 ± 0.051.

“NEDD4-like E3 ubiquitin-protein ligase WWP2 M452H, O00308” yielded an abundance fitness of -0.258 ± 0.066. The figure for “NEDD4-like E3 ubiquitin-protein ligase WWP2 M452I, O00308” is -0.001 ± 0.053; for “NEDD4-like E3 ubiquitin-protein ligase WWP2 M452K, O00308” it is -0.36 ± 0.11. Then “NEDD4-like E3 ubiquitin-protein ligase WWP2 M452L, O00308”, with -0.108 ± 0.042; and “NEDD4-like E3 ubiquitin-protein ligase WWP2 M452P, O00308”, with -0.337 ± 0.054; and “NEDD4-like E3 ubiquitin-protein ligase WWP2 M452Q, O00308”, with -0.107 ± 0.063. Turning to “NEDD4-like E3 ubiquitin-protein ligase WWP2 M452R, O00308”, the abundance fitness was -0.103 ± 0.035. The figure for “NEDD4-like E3 ubiquitin-protein ligase WWP2 M452S, O00308” is -0.069 ± 0.04; for “NEDD4-like E3 ubiquitin-protein ligase WWP2 M452T, O00308” it is -0.017 ± 0.033; for “NEDD4-like E3 ubiquitin-protein ligase WWP2 M452V, O00308” it is 0.034 ± 0.038. As to “NEDD4-like E3 ubiquitin-protein ligase WWP2 M452W, O00308”, the abundance fitness is -0.194 ± 0.057. The figure for “NEDD4-like E3 ubiquitin-protein ligase WWP2 M452Y, O00308” is -0.159 ± 0.049; for “NEDD4-like E3 ubiquitin-protein ligase WWP2 N466A, O00308” it is -0.242 ± 0.034. In the case of “NEDD4-like E3 ubiquitin-protein ligase WWP2 N466C, O00308”, the abundance fitness was -0.169 ± 0.048.

As to “NEDD4-like E3 ubiquitin-protein ligase WWP2 N466D, O00308”, the abundance fitness is -0.377 ± 0.064. For the substance “NEDD4-like E3 ubiquitin-protein ligase WWP2 N466E, O00308”, the abundance fitness is -0.238 ± 0.069.

In turn, “NEDD4-like E3 ubiquitin-protein ligase WWP2 N466F, O00308” registered an abundance fitness of -0.145 ± 0.071. “NEDD4-like E3 ubiquitin-protein ligase WWP2 N466G, O00308” registered an abundance fitness of -0.184 ± 0.051. Then “NEDD4-like E3 ubiquitin-protein ligase WWP2 N466H, O00308”, with -0.169 ± 0.075. Then “NEDD4-like E3 ubiquitin-protein ligase WWP2 N466I, O00308”, with -0.261 ± 0.079; and “NEDD4-like E3 ubiquitin-protein ligase WWP2 N466K, O00308”, with -0.202 ± 0.07; and “NEDD4-like E3 ubiquitin-protein ligase WWP2 N466M, O00308”, with -0.188 ± 0.07. The figure for “NEDD4-like E3 ubiquitin-protein ligase WWP2 N466P, O00308” is -0.636 ± 0.075; for “NEDD4-like E3 ubiquitin-protein ligase WWP2 N466Q, O00308” it is -0.06 ± 0.068.

For “NEDD4-like E3 ubiquitin-protein ligase WWP2 N466R, O00308”, the abundance fitness was -0.164 ± 0.043. “NEDD4-like E3 ubiquitin-protein ligase WWP2 N466S, O00308” yielded an abundance fitness of -0.175 ± 0.049. Substance “NEDD4-like E3 ubiquitin-protein ligase WWP2 N466T, O00308” had an abundance fitness of -0.255 ± 0.063. Then “NEDD4-like E3 ubiquitin-protein ligase WWP2 N466V, O00308”, with -0.212 ± 0.048; and “NEDD4-like E3 ubiquitin-protein ligase WWP2 N466W, O00308”, with -0.513 ± 0.047; and “NEDD4-like E3 ubiquitin-protein ligase WWP2 N466Y, O00308”, with -0.366 ± 0.085. Turning to “NEDD4-like E3 ubiquitin-protein ligase WWP2 P444A, O00308”, the abundance fitness was -0.089 ± 0.059. The figure for “NEDD4-like E3 ubiquitin-protein ligase WWP2 P444D, O00308” is 0.148 ± 0.061; for “NEDD4-like E3 ubiquitin-protein ligase WWP2 P444F, O00308” it is 0.098 ± 0.067; for “NEDD4-like E3 ubiquitin-protein ligase WWP2 P444G, O00308” it is 0.089 ± 0.049. Then “NEDD4-like E3 ubiquitin-protein ligase WWP2 P444H, O00308”, with 0.015 ± 0.037; and “NEDD4-like E3 ubiquitin-protein ligase WWP2 P444I, O00308”, with -0.2 ± 0.049; and “NEDD4-like E3 ubiquitin-protein ligase WWP2 P444K, O00308”, with 0.098 ± 0.071. Then “NEDD4-like E3 ubiquitin-protein ligase WWP2 P444L, O00308”, with 0.036 ± 0.053; and “NEDD4-like E3 ubiquitin-protein ligase WWP2 P444M, O00308”, with 0.09 ± 0.062; and “NEDD4-like E3 ubiquitin-protein ligase WWP2 P444N, O00308”, with 0.105 ± 0.038. Substance “NEDD4-like E3 ubiquitin-protein ligase WWP2 P444Q, O00308” came in with an abundance fitness of 0.065 ± 0.068. The figure for “NEDD4-like E3 ubiquitin-protein ligase WWP2 P444R, O00308” is 0.083 ± 0.041; for “NEDD4-like E3 ubiquitin-protein ligase WWP2 P444T, O00308” it is 0.045 ± 0.063. The figure for “NEDD4-like E3 ubiquitin-protein ligase WWP2 P444V, O00308” is 0.065 ± 0.058; for “NEDD4-like E3 ubiquitin-protein ligase WWP2 P444W, O00308” it is -0.059 ± 0.05.

“NEDD4-like E3 ubiquitin-protein ligase WWP2 P447A, O00308” returned an abundance fitness of -0.234 ± 0.043.

Consider “NEDD4-like E3 ubiquitin-protein ligase WWP2 P447C, O00308”, for which the abundance fitness was -0.458 ± 0.07. Then “NEDD4-like E3 ubiquitin-protein ligase WWP2 P447D, O00308”, with -0.304 ± 0.083.

On to “NEDD4-like E3 ubiquitin-protein ligase WWP2 P447E, O00308”, for which the abundance fitness was -0.185 ± 0.062.

“NEDD4-like E3 ubiquitin-protein ligase WWP2 P447F, O00308” came in with an abundance fitness of -0.331 ± 0.088. “NEDD4-like E3 ubiquitin-protein ligase WWP2 P447H, O00308” displayed an abundance fitness of -0.381 ± 0.075.

Consider “NEDD4-like E3 ubiquitin-protein ligase WWP2 P447I, O00308”, for which the abundance fitness was -0.433 ± 0.051. Then “NEDD4-like E3 ubiquitin-protein ligase WWP2 P447K, O00308”, with -0.17 ± 0.052; and “NEDD4-like E3 ubiquitin-protein ligase WWP2 P447L, O00308”, with -0.228 ± 0.048; and “NEDD4-like E3 ubiquitin-protein ligase WWP2 P447M, O00308”, with -0.203 ± 0.045.

Regarding “NEDD4-like E3 ubiquitin-protein ligase WWP2 P447N, O00308”, the abundance fitness is -0.11 ± 0.075. Turning to “NEDD4-like E3 ubiquitin-protein ligase WWP2 P447Q, O00308”, the abundance fitness is -0.289 ± 0.07. Then “NEDD4-like E3 ubiquitin-protein ligase WWP2 P447R, O00308”, with -0.316 ± 0.04; and “NEDD4-like E3 ubiquitin-protein ligase WWP2 P447S, O00308”, with -0.332 ± 0.046. Then “NEDD4-like E3 ubiquitin-protein ligase WWP2 P447T, O00308”, with -0.541 ± 0.067; and “NEDD4-like E3 ubiquitin-protein ligase WWP2 P447V, O00308”, with -0.633 ± 0.04; and “NEDD4-like E3 ubiquitin-protein ligase WWP2 P447W, O00308”, with -0.659 ± 0.07.

As for “NEDD4-like E3 ubiquitin-protein ligase WWP2 P447Y, O00308”, the abundance fitness is -0.5 ± 0.081.
